Broadly, the Kd is a measure of binding affinity in units of concentration. As a reminder, the koff is a measure of how fast the partners let go of each other. By kon is commonly meant the second-order rate constant of association. Low readings indicate slower complex formation, high ones faster complex formation.

This assay has as its target GDF8, O14793. In words: SPR (Biacore), anti-Fc capture of receptor; very low signal. As to conditions: remark: other sources report otherwise. In general terms: SPR reads the build-up and loss of mass on a sensor chip optically.

GDF8, O14793, sequence (O14793 267-375 limits assumed): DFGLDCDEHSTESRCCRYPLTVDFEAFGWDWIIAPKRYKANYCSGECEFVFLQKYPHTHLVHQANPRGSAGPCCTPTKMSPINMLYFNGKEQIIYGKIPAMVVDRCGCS

B1: ALK4-Fc homodimer, P36896 24-126 (Fc fusion, not shown: a dimerising Fc or GST)
chain: SGPRGVQALLCACTSCLQANYTCETDGACMVSIFNLDGMEHHVRTCIPKVELVPAGKPFYCLSSEDLRNTHCCYTDYCNRIDLRVPSGHLKEPEHPSMWGPVE
B1 registered a Kd of 15 nM, a koff of 0.0019 s⁻¹ and a kon of 130000 M⁻¹ s⁻¹.

The record behind these values is patent publication US20240252628A1.
